Laboratory results reported in patent US20230158141A1 (YAFEI SHANGHAI BIOLOG MEDICINE SCIENCE AND TECHNOLOGY, published 2023).
Numbering of substitutions follows the chain as printed. Names and notes keep the numbering of the source.

B1: anti-PD-1 antibody 2 HC Thr28Cys (antibody, human IgG4 S228P, kappa, V domains shown)
VH: QVQLVESGGGVVQPGRSLRLDCKASGICFSNSGMHWVRQAPGKGLEWVAVIWYDGSKRYYADSVKGRFTISRDNSKNTLFLQMNSLRAEDTAVYYCATNDDYWGQGTLVTVSS
VL: EIVLTQSPATLSLSPGERATLSCRASQSVSSYLAWYQQKPGQAPRLLIYDASNRATGIPARFSGSGSGTDFTLTISSLEPEDFAVYYCQQSSNWPRTFGQGTKVEIKR
modifications: arm on Cys28 as named in each row
B2: anti-PD-1 antibody 2 HC Thr98Cys (antibody, human IgG4 S228P, kappa, V domains shown)
VH: B1 VH with C28T, T98C
VL: B1 VL
modifications: arm on Cys98 as named in each row
B3: anti-PD-1 antibody 2 HC Ser85Cys (antibody, human IgG4 S228P, kappa, V domains shown)
VH: B1 VH with C28T, S85C
VL: B1 VL
modifications: arm on Cys85 as named in each row
B4: anti-PD-1 antibody 2 HC Thr78Cys (antibody, human IgG4 S228P, kappa, V domains shown)
VH: B1 VH with C28T, T78C
VL: B1 VL
modifications: arm on Cys78 as named in each row
B5: anti-PD-1 antibody 2 HC Ser75Cys (antibody, human IgG4 S228P, kappa, V domains shown)
VH: B1 VH with C28T, S75C
VL: B1 VL
modifications: arm on Cys75 as named in each row
B6: anti-PD-1 antibody 2 HC Thr91Cys (antibody, human IgG4 S228P, kappa, V domains shown)
VH: B1 VH with C28T, T91C
VL: B1 VL
modifications: arm on Cys91 as named in each row
B7: anti-CTLA-4 antibody light chain A25C (antibody, human IgG1, kappa, V domains shown)
VH: QVQLVESGGGVVQPGRSLRLSCAASGFTFSSYTMHWVRQAPGKGLEWVTFISYDGNNKYYADSVKGRFTISRDNSKNTLYLQMNSLRAEDTAIYYCARTGWLGPFDYWGQGTLVTVSS
VL: not shown
B8: anti-CTLA-4 antibody light chain S54C (antibody, human IgG1, kappa, V domains shown)
VH: B7 VH
VL: not shown
B9: anti-CTLA-4 antibody light chain G93C (antibody, human IgG1, kappa, V domains shown)
VH: B7 VH
VL: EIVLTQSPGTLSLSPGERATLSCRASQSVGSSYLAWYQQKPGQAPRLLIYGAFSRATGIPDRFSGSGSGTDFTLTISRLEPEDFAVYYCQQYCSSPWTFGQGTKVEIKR
B10: anti-CTLA-4 antibody light chain G58C (antibody, human IgG1, kappa, V domains shown)
VH: B7 VH
VL: not shown
B11: anti-CTLA-4 antibody light chain G30C (antibody, human IgG1, kappa, V domains shown)
VH: B7 VH
VL: not shown
B12: anti-CTLA-4 antibody light chain S32C (antibody, human IgG1, kappa, V domains shown)
VH: B7 VH
VL: not shown
B13: anti-CTLA-4 antibody light chain S94C (antibody, human IgG1, kappa, V domains shown)
VH: B7 VH
VL: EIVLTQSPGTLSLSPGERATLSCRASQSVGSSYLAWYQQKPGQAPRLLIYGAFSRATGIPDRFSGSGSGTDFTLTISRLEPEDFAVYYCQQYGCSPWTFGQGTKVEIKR
B14: anti-CTLA-4 antibody light chain S31C (antibody, human IgG1, kappa, V domains shown)
VH: B7 VH
VL: not shown
B15: anti-CTLA-4 antibody light chain S26C (antibody, human IgG1, kappa, V domains shown)
VH: B7 VH
VL: not shown
notes: also called CTLA-4-Ser26Cys
B16: anti-CTLA-4 antibody light chain S95C (antibody, human IgG1, kappa, V domains shown)
VH: B7 VH
VL: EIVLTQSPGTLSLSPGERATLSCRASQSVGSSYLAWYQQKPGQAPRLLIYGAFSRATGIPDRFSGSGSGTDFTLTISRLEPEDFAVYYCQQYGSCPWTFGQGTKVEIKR
B17: anti-CTLA-4 antibody light chain T57C (antibody, human IgG1, kappa, V domains shown)
VH: B7 VH
VL: not shown
B18: anti-CTLA-4 antibody light chain G51C (antibody, human IgG1, kappa, V domains shown)
VH: B7 VH
VL: not shown
B19: anti-CTLA-4 antibody light chain S28C (antibody, human IgG1, kappa, V domains shown)
VH: B7 VH
VL: not shown
B20: anti-PD-1 antibody 1 light chain L37C (antibody, human IgG4 S228P, kappa, V domains shown)
VH: QVQLVQSGVEVKKPGASVKVSCKASGYTFTNYYMYWVRQAPGQGLEWMGGINPSNGGTNFNEKFKNRVTLTTDSSTTTAYMELKSLQFDDTAVYYCARRDYRFDMGFDYWGQGTTVTVSS
VL: EIVLTQSPATLSLSPGERATLSCRASKGVSTSGYSYCHWYQQKPGQAPRLLIYLASYLESGVPARFSGSGSGTDFTLTISSLEPEDFAVYYCQHSRDLPLTFGGGTKVEIKR
B21: anti-PD-1 antibody 1 light chain A25C (antibody, human IgG4 S228P, kappa, V domains shown)
VH: B20 VH
VL: B20 VL with A25C, C37L
B22: anti-PD-1 antibody 1 light chain L54C (antibody, human IgG4 S228P, kappa, V domains shown)
VH: B20 VH
VL: B20 VL with C37L, L54C
B23: anti-PD-1 antibody 1 light chain A55C (antibody, human IgG4 S228P, kappa, V domains shown)
VH: B20 VH
VL: B20 VL with C37L, A55C
B24: anti-PD-1 antibody 1 light chain T31C (antibody, human IgG4 S228P, kappa, V domains shown)
VH: B20 VH
VL: B20 VL with T31C, C37L
B25: anti-PD-1 antibody 1 light chain T101C (antibody, human IgG4 S228P, kappa, V domains shown)
VH: B20 VH
VL: B20 VL with C37L, T101C
B26: anti-PD-1 antibody 2 heavy chain G33C (antibody, human IgG4 S228P, kappa, V domains shown)
VH: B1 VH with C28T, G33C
VL: B1 VL
B27: anti-PD-1 antibody 2 heavy chain S56C (antibody, human IgG4 S228P, kappa, V domains shown)
VH: B1 VH with C28T, S56C
VL: B1 VL
B28: anti-PD-1 antibody 2 heavy chain G66C (antibody, human IgG4 S228P, kappa, V domains shown)
VH: B1 VH with C28T, G66C
VL: B1 VL
B29: anti-PD-1 antibody 2 heavy chain S30C (antibody, human IgG4 S228P, kappa, V domains shown)
VH: B1 VH with C28T, S30C
VL: B1 VL
B30: anti-PD-1 antibody 2 heavy chain S32C (antibody, human IgG4 S228P, kappa, V domains shown)
VH: B1 VH with C28T, S32C
VL: B1 VL
B31: anti-PD-1 antibody 2 heavy chain S63C (antibody, human IgG4 S228P, kappa, V domains shown)
VH: B1 VH with C28T, S63C
VL: B1 VL
B32: anti-PD-1 antibody 2 heavy chain G55C (antibody, human IgG4 S228P, kappa, V domains shown)
VH: B1 VH with C28T, G55C
VL: B1 VL
B33: anti-PD-1 antibody 1 heavy chain G50C (antibody, human IgG4 S228P, kappa, V domains shown)
VH: B20 VH with G50C
VL: B20 VL with C37L
B34: anti-PD-1 antibody 1 heavy chain G57C (antibody, human IgG4 S228P, kappa, V domains shown)
VH: B20 VH with G57C
VL: B20 VL with C37L
B35: anti-PD-1 antibody 1 heavy chain S54C (antibody, human IgG4 S228P, kappa, V domains shown)
VH: B20 VH with S54C
VL: B20 VL with C37L
B36: anti-PD-1 antibody 1 heavy chain G56C (antibody, human IgG4 S228P, kappa, V domains shown)
VH: B20 VH with G56C
VL: B20 VL with C37L
B37: anti-PD-1 antibody 1 heavy chain T30C (antibody, human IgG4 S228P, kappa, V domains shown)
VH: B20 VH with T30C
VL: B20 VL with C37L
B38: anti-PD-1 antibody 1 heavy chain T58C (antibody, human IgG4 S228P, kappa, V domains shown)
VH: B20 VH with T58C
VL: B20 VL with C37L
B39: anti-PD-1 antibody 1 heavy chain G106C (antibody, human IgG4 S228P, kappa, V domains shown)
VH: B20 VH with G106C
VL: B20 VL with C37L

These binders were tested against T1, PD-1 (UniProt Q15116 25-167, limits assumed) (assay: ELISA; S13 on the Cys).
T1 sequence (Q15116 25-167 limits assumed): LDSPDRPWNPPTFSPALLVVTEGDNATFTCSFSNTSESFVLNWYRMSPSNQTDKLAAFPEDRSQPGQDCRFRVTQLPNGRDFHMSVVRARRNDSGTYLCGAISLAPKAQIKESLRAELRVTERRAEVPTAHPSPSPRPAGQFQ

binding activity, % of wild type [%] | Binder
15 | B1
32.1 | B2
32.3 | B3
42.4 | B4
14.6 | B5
21.7 | B6

These binders were tested against CTLA-4 (UniProt P16410 36-162, limits assumed) (assay: ELISA, OD mutant/OD WT; A=90-110%).
Sequence of CTLA-4 (P16410 36-162 limits assumed): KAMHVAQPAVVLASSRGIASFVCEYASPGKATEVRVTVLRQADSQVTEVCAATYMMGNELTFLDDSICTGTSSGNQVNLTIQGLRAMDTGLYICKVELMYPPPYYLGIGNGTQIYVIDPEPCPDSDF

binding activity (OD after mutation/OD wild type) [%] | Binder
90 to 110 | B7
90 to 110 | B8
90 to 110 | B9
90 to 110 | B10
90 to 110 | B11
90 to 110 | B12
90 to 110 | B13
90 to 110 | B14
90 to 110 | B15
90 to 110 | B16
90 to 110 | B17
90 to 110 | B18
90 to 110 | B19

The binders below were run against T2, PD-1 (UniProt Q15116 25-167, limits assumed) (assay: ELISA, OD mutant/OD WT; B=70-90%).
T2 sequence (Q15116 25-167 limits assumed): as the sequence (Q15116 25-167 limits assumed) above

binding activity (OD after mutation/OD wild type) [%] | Binder
70 to 90 | B20
70 to 90 | B21
70 to 90 | B22
70 to 90 | B23
70 to 90 | B24
70 to 90 | B25

Each binder was assayed against T1, PD-1 (assay: ELISA; Cys mutant, no arm).

binding activity, % of wild type [%] | Binder
86.4 | B1
89.6 | B2
98.8 | B3
92.2 | B4
96.3 | B5
86 | B6

These binders were tested against T2, PD-1 (assay: ELISA, OD mutant/OD WT; A=90-110%).

binding activity (OD after mutation/OD wild type) [%] | Binder
90 to 110 | B26
90 to 110 | B27
90 to 110 | B28
90 to 110 | B29
90 to 110 | B30
90 to 110 | B31
90 to 110 | B32
90 to 110 | B33
90 to 110 | B34
90 to 110 | B35
90 to 110 | B36
90 to 110 | B37
90 to 110 | B38
90 to 110 | B39

These binders were tested against T1, PD-1 (assay: ELISA; S9 on the Cys).

binding activity, % of wild type [%] | Binder
29.9 | B1
59.9 | B2
69.4 | B3
86.3 | B4
38.7 | B5
48.9 | B6
